Experimental data as given in paper PMC3106293.

What was measured:
Details in all cases: other: flavonoid as substrate; substrate inhibition equation (2); 37.0 °C
[1] = substrate: O=C1C[C@@H](c2ccc(O)c(O)c2)Oc2cc(O)cc(O)c21; test: Sulfation of flavonoids by recombinant hSULT1A1; format: in vitro ADME, human
[2] = substrate: Oc1cc(O)c2c(c1)O[C@H](c1ccc(O)c(O)c1)[C@H](O)C2; test: Sulfation of flavonoids by recombinant hSULT1A1; format: in vitro ADME, human
not read [3] = substrate: COc1ccc([C@@H]2CC(=O)c3c(O)cc(O)cc3O2)cc1O; test: not read
not read [4] = substrate: O=C1C[C@@H](c2ccc(O)c(O)c2)Oc2cc(O)cc(O)c21; test: not read
not read [5] = substrate: Oc1cc(O)c2c(c1)O[C@H](c1ccc(O)c(O)c1)[C@H](O)C2; test: not read

Protein | Km [1] [µM] | Vmax [1] [µmol/min/mg] | Vmax/Km [1] [µL/min/mg] | Km [2] [µM] | Vmax [2] [µmol/min/mg] | Vmax/Km [2] [µL/min/mg] | Km (not read [3]) [µM] | Vmax (not read [3]) [µmol/min/mg] | Vmax/Km (not read [3]) [µL/min/mg] | Km (not read [4]) [µM] | Vmax (not read [4]) [µmol/min/mg] | Vmax/Km (not read [4]) [µL/min/mg] | Km (not read [5]) [µM] | Vmax (not read [5]) [µmol/min/mg] | Vmax/Km (not read [5]) [µL/min/mg]
hSULT1A1 (Homo sapiens) (protein) MELIQDTSRPPLEYVKGVPLIKYFAEALGPLQSFQARPDDLLISTYPKSGTTWVSQILDMIYQGGDLEKCHRAPIFMRVPFLEFKAPGIPSGMETLKDTPAPRLLKTHLPLALLPQTLLDQKVKVVYVARNAKDVAVSYYHFYHMAKVHPEPGTWDSFLEKFMVGEVSYGSWYQHVQEWWELSRTHPVLYLFYEDMKENPKREIQKILEFVGRSLPEETVDFVVQHTSFKEMKKNPMTNYTTVPQEFMDHSISPFMRKGMAGDWKTTFTVAQNERFDADYAEKMAGCSLSFRSEL | 80.8 ± 3.3 | 0.0986 | 1220 | 301 ± 89.0 | 0.188 | 620 | 63.0 ± 0.6 | 0.0927 | 1470 |  |  |  |  |  | 
hSULT1A3 (Homo sapiens) (protein) MELIQDTSRPPLEYVKGVPLIKYFAEALGPLQSFQARPDDLLINTYPKSGTTWVSQILDMIYQGGDLEKCNRAPIYVRVPFLEVNDPGEPSGLETLKDTPPPRLIKSHLPLALLPQTLLDQKVKVVYVARNPKDVAVSYYHFHRMEKAHPEPGTWDSFLEKFMAGEVSYGSWYQHVQEWWELSRTHPVLYLFYEDMKENPKREIQKILEFVGRSLPEETMDFMVQHTSFKEMKKNPMTNYTTVPQELMDHSISPFMRKGMAGDWKTTFTVAQNERFDADYAEKMAGCSLSFRSEL |  |  |  |  |  |  | 179 ± 3.7 |  |  | 193 ± 3.3 | 0.269 | 1390 | 437 ± 10.1 | 0.442 | 1010
